Each substance was assayed on [H][C@]12[C@H](OC(=O)c3ccccc3)[C@]3(O)C[C@H](OC(=O)[C@H](O)[C@@H](NC(=O)c4ccccc4)c4ccccc4)C(C)=C([C@@H](O)C(=O)[C@]1(C)[C@@H](O[C@@H]1OC[C@@H](O)[C@H](O)[C@H]1O)C[C@@]1([H])OC[C@@]21OC(C)=O)C3(C)C (assay: HPLC of 10-deacetyltaxol formation, nonlinear Michaelis–Menten fit). Conditions: XDT 0.039–5.0 mM; other conditions as described previously.
Assay type: biochemical, Lentinula edodes
From the text: HPLC of 10-deacetyltaxol formation, nonlinear Michaelis–Menten fit on LXYL-P1–2
In the case of LXYL-P1–2 (Lentinula edodes; T368E), the Km is reported as 0.16 (±0.01) mmol L^−1, the Vmax is reported as 3.84 µM/min and the kcat is reported as 2.3 ± 0.03 s⁻¹. The kcat/Km was 14200 ± 810 M⁻¹ s⁻¹. LXYL-P1–2 (Lentinula edodes; S91D) was tested, and the Km was 0.17 (±0.01) mmol L^−1, the Vmax was 3.15 µM/min and the kcat was 1.89 ± 0.04 s⁻¹. For the same substance, the kcat/Km was 11300 ± 390 M⁻¹ s⁻¹. LXYL-P1–2 (Lentinula edodes) was tested, and the Km was 0.51 (±0.01) mmol L^−1, the Vmax was 8.16 µM/min and the kcat was 4.89 ± 0.1 s⁻¹. For the same substance, the kcat/Km was 9670 ± 100 M⁻¹ s⁻¹.
